Measurements reported in article PMC2926616 (Nucleic Acids Research, 2010).

B1: Human GEMIN2 (natural protein, UniProt O14893 1-280, looked up)
chain: MRRAELAGLKTMAWVPAESAVEELMPRLLPVEPCDLTEGFDPSVPPRTPQEYLRRVQIEAAQCPDVVVAQIDPKKLKRKQSVNISLSGCQPAPEGYSPTLQWQQQQVAQFSTVRQNVNKHRSHWKSQQLDSNVTMPKSEDEEGWKKFCLGEKLCADGAVGPATNESPGIDYVQIGFPPLLSIVSRMNQATVTSVLEYLSNWFGERDFTPELGRWLYALLACLEKPLLPEAHSLIRQLARRCSEVRLLVDSKDDERVPALNLLICLVSRYFDQRDLADEPS
B2: 49-mer dsDNA (dsDNA)
DNA 1: GTCCCAGGCCATTACAGATCAATCCTGAGCATGTTTACCAAGCGCATTG
DNA 2: CAATGCGCTTGGTAAACATGCTCAGGATTGATCTGTAATGGCCTGGGAC

Experiments:
Human RAD51 = target: T1, Human RAD51 (human, UniProt Q06609 1-339); experiment: pull-down
T1 sequence (looked up): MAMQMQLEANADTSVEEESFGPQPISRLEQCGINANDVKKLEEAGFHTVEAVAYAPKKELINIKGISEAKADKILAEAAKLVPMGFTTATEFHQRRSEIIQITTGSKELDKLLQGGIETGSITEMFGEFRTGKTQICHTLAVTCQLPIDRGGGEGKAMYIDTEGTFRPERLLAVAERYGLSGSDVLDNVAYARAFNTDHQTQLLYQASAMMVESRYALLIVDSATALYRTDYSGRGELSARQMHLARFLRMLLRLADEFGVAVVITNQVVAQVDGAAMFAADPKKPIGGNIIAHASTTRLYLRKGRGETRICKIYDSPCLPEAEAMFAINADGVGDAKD

RAD51 = RAD51 (human, UniProt Q06609 1-339); experiment: EMSA

| Binder | binding result (Human RAD51) | binding result (RAD51) |
| --- | --- | --- |
| B1 | binds |  |
| B2 |  | binds |
